Values belong to the molecule of their own block, whether it stands above or below them.
How the values were obtained:
[1] = target: human α5β1 integrin, full-length (Millipore CC1027) (human) (UniProt P08648); experiment: BLI; inhibition: α5β1 integrin at 35.5 µg/mL preincubated one hour at room temperature with or without RGD peptide at 50 µg/mL, then LOXL2-coated AR2G sensor dipped in it; same buffer as the kinetics
SPARC = target: T1, SPARC (UniProt P09486 18-303); experiment: SPR; BIAcore T100; ligands covalently immobilised by amine coupling on CM5 or CM3 (collagen XVII) sensor chips; LOXL2, SRCR 1-2 and SRCR 1-4 injected in 10 mM Hepes pH 7.4, 150 mM NaCl, 0.05% P20
T1 construct: SPARC; also called immobilized SPARC
T1 sequence (looked up): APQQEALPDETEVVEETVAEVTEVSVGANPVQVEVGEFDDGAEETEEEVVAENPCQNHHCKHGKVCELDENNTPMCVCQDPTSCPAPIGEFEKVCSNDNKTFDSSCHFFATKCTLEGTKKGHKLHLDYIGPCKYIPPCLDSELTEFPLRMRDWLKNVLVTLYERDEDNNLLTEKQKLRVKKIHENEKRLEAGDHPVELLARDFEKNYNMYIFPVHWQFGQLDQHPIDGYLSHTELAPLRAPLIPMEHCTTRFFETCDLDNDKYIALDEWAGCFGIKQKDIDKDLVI

[2] = target: T2, human α5β1 integrin, full-length (Millipore CC1027) (human, UniProt P08648 42-1049; P05556 21-798); experiment: SPR; SPR imaging, BIAcore Flexchip; α5β1 integrin (29.3 µg/mL) as analyte recirculated over ECM arrays including spotted LOXL2; 10 mM Hepes pH 7.4, 150 mM NaCl, 50 mM β-octyl-D-glucopyranoside, 2 mM MgCl2, 2 mM MnCl2; details: both partners purified
T2 construct: integrin alpha-5 subunit of human α5β1 integrin; integrin beta-1 subunit of human α5β1 integrin; Used in buffer with 50 mM β-octyl-D-glucopyranoside, MgCl2 and MnCl2; The source is told for the BLI assays only; also called full-length α5β1 integrin; source: bought: Millipore, Merck, CC1027
T2 sequence (P08648 42-1049, chain 1 of 2): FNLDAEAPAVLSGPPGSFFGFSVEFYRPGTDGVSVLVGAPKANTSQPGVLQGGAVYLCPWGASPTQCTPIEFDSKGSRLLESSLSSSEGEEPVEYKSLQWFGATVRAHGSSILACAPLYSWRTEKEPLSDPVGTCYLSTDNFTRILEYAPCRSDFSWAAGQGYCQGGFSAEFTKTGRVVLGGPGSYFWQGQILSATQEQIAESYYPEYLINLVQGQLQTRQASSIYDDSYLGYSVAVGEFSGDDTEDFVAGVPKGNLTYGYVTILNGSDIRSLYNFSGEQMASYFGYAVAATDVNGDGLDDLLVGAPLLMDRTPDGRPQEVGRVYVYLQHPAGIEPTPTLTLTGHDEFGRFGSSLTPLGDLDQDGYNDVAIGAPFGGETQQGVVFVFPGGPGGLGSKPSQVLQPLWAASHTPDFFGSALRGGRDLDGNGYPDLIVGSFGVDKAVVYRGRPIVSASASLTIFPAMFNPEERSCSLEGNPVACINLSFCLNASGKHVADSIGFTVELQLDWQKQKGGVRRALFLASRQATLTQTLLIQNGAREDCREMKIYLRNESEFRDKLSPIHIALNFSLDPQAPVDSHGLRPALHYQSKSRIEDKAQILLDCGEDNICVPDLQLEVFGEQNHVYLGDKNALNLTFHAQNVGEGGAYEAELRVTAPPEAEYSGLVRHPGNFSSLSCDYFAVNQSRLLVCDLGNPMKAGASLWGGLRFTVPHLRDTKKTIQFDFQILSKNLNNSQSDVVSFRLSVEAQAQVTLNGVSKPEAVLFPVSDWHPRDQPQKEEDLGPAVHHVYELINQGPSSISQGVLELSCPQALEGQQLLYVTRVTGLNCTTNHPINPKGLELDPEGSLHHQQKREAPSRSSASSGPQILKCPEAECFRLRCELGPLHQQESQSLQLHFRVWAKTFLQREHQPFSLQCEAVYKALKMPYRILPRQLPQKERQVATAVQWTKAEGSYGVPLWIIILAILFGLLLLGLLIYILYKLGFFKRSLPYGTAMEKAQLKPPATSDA
T2 sequence (P05556 21-798, chain 2 of 2): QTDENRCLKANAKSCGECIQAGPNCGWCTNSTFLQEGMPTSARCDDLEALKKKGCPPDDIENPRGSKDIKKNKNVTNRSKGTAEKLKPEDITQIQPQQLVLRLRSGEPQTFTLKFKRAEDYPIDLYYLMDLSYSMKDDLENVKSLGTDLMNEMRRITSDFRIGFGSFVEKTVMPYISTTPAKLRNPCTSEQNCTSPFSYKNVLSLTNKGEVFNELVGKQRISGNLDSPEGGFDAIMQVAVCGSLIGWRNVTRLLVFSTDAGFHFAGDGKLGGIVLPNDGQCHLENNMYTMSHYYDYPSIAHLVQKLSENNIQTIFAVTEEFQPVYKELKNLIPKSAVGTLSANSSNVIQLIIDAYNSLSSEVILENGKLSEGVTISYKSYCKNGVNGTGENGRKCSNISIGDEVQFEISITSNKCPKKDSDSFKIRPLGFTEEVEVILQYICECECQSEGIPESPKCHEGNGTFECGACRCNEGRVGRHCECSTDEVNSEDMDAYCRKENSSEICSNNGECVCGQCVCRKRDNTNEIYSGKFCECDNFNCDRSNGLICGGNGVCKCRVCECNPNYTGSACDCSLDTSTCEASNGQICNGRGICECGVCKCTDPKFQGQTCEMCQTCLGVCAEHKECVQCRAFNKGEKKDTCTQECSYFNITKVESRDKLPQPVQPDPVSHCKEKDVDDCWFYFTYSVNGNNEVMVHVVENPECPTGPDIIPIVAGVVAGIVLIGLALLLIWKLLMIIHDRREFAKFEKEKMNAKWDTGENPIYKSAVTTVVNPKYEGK

[3] = target: T2, human α5β1 integrin, full-length …; experiment: BLI; inhibition: α5β1 integrin at 35.5 µg/mL preincubated one hour at room temperature with or without RGD peptide at 50 µg/mL, then LOXL2-coated AR2G sensor dipped in it; same buffer as the kinetics; details: both partners purified

human α5β1 integrin, full-length (Millipore CC1027) (human), sequence (P08648 42-1049, chain 1 of 2): as the sequence (P08648 42-1049, chain 1 of 2) above
human α5β1 integrin, full-length (Millipore CC1027) (human), sequence (P05556 21-798, chain 2 of 2, further chain): as the sequence (P05556 21-798, chain 2 of 2) above

- percent decrease of the binding of α5β1 integrin to LOXL2 [1]: 24.9%
Molecule: RGD peptide (Sigma-Aldrich, A8052)

- Kd (SPARC; both partners purified): 21.4 nM
B1: LOXL2 N-terminal scavenger receptor cysteine-rich domains SRCR 1-2 (residues 58-302) (domain or fragment, UniProt Q9Y4K0 58-302, looked up)
chain: LRLAGQKRKHSEGRVEVYYDGQWGTVCDDDFSIHAAHVVCRELGYVEAKSWTASSSYGKGEGPIWLDNLHCTGNEATLAACTSNGWGVTDCKHTEDVGVVCSDKRIPGFKFDNSLINQIENLNIQVEDIRIRAILSTYRKRTPVMEGYVEVKEGKTWKQICDKHWTAKNSRVVCGMFGFPGERTYNTKVYKMFASRRKQRYWPFSMDCTGTEAHISSCKLGPQVSLDPMKNVTCENGLPAVVSCV
notes: LOXL2, SRCR domains 1-2, residues 58-302; also called SRCR 1-2 domain; source: expressed as recombinant protein as previously described [62]

- KD1 (site 1, heterogeneous ligand model) (SPARC): 37.8 nM
- KD2 (site 2, heterogeneous ligand model) (SPARC): 41.5 nM
- ka1 (site 1, heterogeneous ligand model) (SPARC): 186000 M⁻¹ s⁻¹
- ka2 (site 2, heterogeneous ligand model) (SPARC): 167000 M⁻¹ s⁻¹
- kd1 (site 1, heterogeneous ligand model) (SPARC): 0.00622 s⁻¹
- kd2 (site 2, heterogeneous ligand model) (SPARC): 0.00769 s⁻¹
- binding result [2]: binds
B2: lysyl oxidase-like 2 (LOXL2), full-length recombinant protein (enzyme, UniProt Q9Y4K0 26-774, looked up)
chain: QYDSWPHYPEYFQQPAPEYHQPQAPANVAKIQLRLAGQKRKHSEGRVEVYYDGQWGTVCDDDFSIHAAHVVCRELGYVEAKSWTASSSYGKGEGPIWLDNLHCTGNEATLAACTSNGWGVTDCKHTEDVGVVCSDKRIPGFKFDNSLINQIENLNIQVEDIRIRAILSTYRKRTPVMEGYVEVKEGKTWKQICDKHWTAKNSRVVCGMFGFPGERTYNTKVYKMFASRRKQRYWPFSMDCTGTEAHISSCKLGPQVSLDPMKNVTCENGLPAVVSCVPGQVFSPDGPSRFRKAYKPEQPLVRLRGGAYIGEGRVEVLKNGEWGTVCDDKWDLVSASVVCRELGFGSAKEAVTGSRLGQGIGPIHLNEIQCTGNEKSIIDCKFNAESQGCNHEEDAGVRCNTPAMGLQKKLRLNGGRNPYEGRVEVLVERNGSLVWGMVCGQNWGIVEAMVVCRQLGLGFASNAFQETWYWHGDVNSNKVVMSGVKCSGTELSLAHCRHDGEDVACPQGGVQYGAGVACSETAPDLVLNAEMVQQTTYLEDRPMFMLQCAMEENCLSASAAQTDPTTGYRRLLRFSSQIHNNGQSDFRPKNGRHAWIWHDCHRHYHSMEVFTHYDLLNLNGTKVAEGHKASFCLEDTECEGDIQKNYECANFGDQGITMGCWDMYRHDIDCQWVDITDVPPGDYLFQVVINPNFEVAESDYSNNIMKCRSRYDGHRIWMYNCHIGGSFSEETEKKFEHFSGLLNNQLSPQ
notes: lysyl oxidase-like 2 (LOXL2), full-length recombinant protein made in the laboratory; As a secreted recombinant protein it probably lacks its signal peptide (surmise); also called full-length LOXL2; soluble LOXL2; source: expressed as recombinant protein as previously described [62]

- binding result [3]: binds
B3: Recombinant human LOXL2 (R&D Systems, 2639-AO) (enzyme, UniProt Q9Y4K0 26-774, looked up)
chain: QYDSWPHYPEYFQQPAPEYHQPQAPANVAKIQLRLAGQKRKHSEGRVEVYYDGQWGTVCDDDFSIHAAHVVCRELGYVEAKSWTASSSYGKGEGPIWLDNLHCTGNEATLAACTSNGWGVTDCKHTEDVGVVCSDKRIPGFKFDNSLINQIENLNIQVEDIRIRAILSTYRKRTPVMEGYVEVKEGKTWKQICDKHWTAKNSRVVCGMFGFPGERTYNTKVYKMFASRRKQRYWPFSMDCTGTEAHISSCKLGPQVSLDPMKNVTCENGLPAVVSCVPGQVFSPDGPSRFRKAYKPEQPLVRLRGGAYIGEGRVEVLKNGEWGTVCDDKWDLVSASVVCRELGFGSAKEAVTGSRLGQGIGPIHLNEIQCTGNEKSIIDCKFNAESQGCNHEEDAGVRCNTPAMGLQKKLRLNGGRNPYEGRVEVLVERNGSLVWGMVCGQNWGIVEAMVVCRQLGLGFASNAFQETWYWHGDVNSNKVVMSGVKCSGTELSLAHCRHDGEDVACPQGGVQYGAGVACSETAPDLVLNAEMVQQTTYLEDRPMFMLQCAMEENCLSASAAQTDPTTGYRRLLRFSSQIHNNGQSDFRPKNGRHAWIWHDCHRHYHSMEVFTHYDLLNLNGTKVAEGHKASFCLEDTECEGDIQKNYECANFGDQGITMGCWDMYRHDIDCQWVDITDVPPGDYLFQVVINPNFEVAESDYSNNIMKCRSRYDGHRIWMYNCHIGGSFSEETEKKFEHFSGLLNNQLSPQ
notes: recombinant human lysyl oxidase-like 2 (LOXL2), commercial protein; also called immobilized LOXL2; source: bought: R&D Systems, BioTechne, 2639-AO
